In doi:10.1101/2024.05.16.594476 (bioRxiv, 2024):

B1: Mtb RNAP β subunit (natural protein)
chain: MLEGCILADSRQSKTAASPSPSRPQSSSNNSVPGAPNRVSFAKLREPLEVPGLLDVQTDSFEWLIGSPRWRESAAERGDVNPVGGLEEVLYELSPIEDFSGSMSLSFSDPRFDDVKAPVDECKDKDMTYAAPLFVTAEFINNNTGEIKSQTVFMGDFPMMTEKGTFIINGTERVVVSQLVRSPGVYFDETIDKSTDKTLHSVKVIPSRGAWLEFDVDKRDTVGVRIDRKRRQPVTVLLKALGWTSEQIVERFGFSEIMRSTLEKDNTVGTDEALLDIYRKLRPGEPPTKESAQTLLENLFFKEKRYDLARVGRYKVNKKLGLHVGEPITSSTLTEEDVVATIEYLVRLHEGQTTMTVPGGVEVPVETDDIDHFGNRRLRTVGELIQNQIRVGMSRMERVVRERMTTQDVEAITPQTLINIRPVVAAIKEFFGTSQLSQFMDQNNPLSGLTHKRRLSALGPGGLSRERAGLEVRDVHPSHYGRMCPIETPEGPNIGLIGSLSVYARVNPFGFIETPYRKVVDGVVSDEIVYLTADEEDRHVVAQANSPIDADGRFVEPRVLVRRKAGEVEYVPSSEVDYMDVSPRQMVSVATAMIPFLEHDDANRALMGANMQRQAVPLVRSEAPLVGTGMELRAAIDAGDVVVAEESGVIEEVSADYITVMHDNGTRRTYRMRKFARSNHGTCANQCPIVDAGDRVEAGQVIADGPCTDDGEMALGKNLLVAIMPWEGHNYEDAIILSNRLVEEDVLTSIHIEEHEIDARDTKLGAEEITRDIPNISDEVLADLDERGIVRIGAEVRDGDILVGKVTPKGETELTPEERLLRAIFGEKAREVRDTSLKVPHGESGKVIGIRVFSREDEDELPAGVNELVRVYVAQKRKISDGDKLAGRHGNKGVIGKILPVEDMPFLADGTPVDIILNTHGVPRRMNIGQILETHLGWCAHSGWKVDAAKGVPDWAARLPDELLEAQPNAIVSTPVFDGAQEAELQGLLSCTLPNRDGDVLVDADGKAMLFDGRSGEPFPYPVTVGYMYIMKLHHLVDDKIHARSTGPYSMITQQPLGGKAQFGGQRFGEMECWAMQAYGAAYTLQELLTIKSDDTVGRVKVYEAIVKGENIPEPGIPESFKVLLKELQSLCLNVEVLSSDGAAIELREGEDEDLERAAANLGINLSRNESASVEDLA
B2: Mtb RNAP α subunit (natural protein)
chain: MLISQRPTLSEDVLTDNRSQFVIEPLEPGFGYTLGNSLRRTLLSSIPGAAVTSIRIDGVLHEFTTVPGVKEDVTEIILNLKSLVVSSEEDEPVTMYLRKQGPGEVTAGDIVPPAGVTVHNPGMHIATLNDKGKLEVELVVERGRGYVPAVQNRASGAEIGRIPVDSIYSPVLKVTYKVDATRVEQRTDFDKLILDVETKNSISPRDALASAGKTLVELFGLARELNVEAEGIEIGPSPAEADHIASFALPIDDLDLTVRSYNCLKREGVHTVGELVARTESDLLDIRNFGQKSIDEVKIKLHQLGLSLKDSPPSFDPSEVAGYDVATGTWSTEGAYDEQDYAETEQL
B3: Mtb RNAP σ^A (natural protein)
chain: MAATKASTATDEPVKRTATKSPAASASGAKTGAKRTAAKSASGSPPAKRATKPAARSVKPASAPQDTTTSTIPKRKTRAAAKSAAAKAPSARGHATKPRAPKDAQHEAATDPEDALDSVEELDAEPDLDVEPGEDLDLDAADLNLDDLEDDVAPDADDDLDSGDDEDHEDLEAEAAVAPGQTADDDEEIAEPTEKDKASGDFVWDEDESEALRQARKDAELTASADSVRAYLKQIGKVALLNAEEEVELAKRIEAGLYATQLMTELSERGEKLPAAQRRDMMWICRDGDRAKNHLLEANLRLVVSLAKRYTGRGMAFLDLIQEGNLGLIRAVEKFDYTKGYKFSTYATWWIRQAITRAMADQARTIRIPVHMVEVINKLGRIQRELLQDLGREPTPEELAKEMDITPEKVLEIQQYAREPISLDQTIGDEGDSQLGDFIEDSEAVVAVDAVSFTLLQDQLQSVLDTLSEREAGVVRLRFGLTDGQPRTLDEIGQVYGVTRERIRQIESKTMSKLRHPSRSQVLRDYLD
B4: Mtb GlnR, the nitrogen metabolism regulator (natural protein)
chain: MLELLLLTSELYPDPVLPALSLLPHTVRTAPAEASSLLEAGNADAVLVDARNDLSSGRGLCRLLSSTGRSIPVLAVVSEGGLVAVSADWGLDEILLLSTGPAEIDARLRLVVGRRGDLADQESLGKVSLGELVIDEGTYTARLRGRPLDLTYKEFELLKYLAQHAGRVFTRAQLLHEVWGYDFFGGTRTVDVHVRRLRAKLGPEHEALIGTVRNVGYKAVRPARGRPPAADPDDEDADPGRDGMQEPLVDPLRSQ

What was measured:
[1] = biological target: T1, Mtb PhoP, phosphorylated with acetyl phosphate (AcP) (Mycobacterium tuberculosis, UniProt P71814 1-247); experiment: […]
Mtb RNAP σ^A = biological target: B3; experiment: cryo-EM structure
Mtb RNAP α subunit = biological target: B2; experiment: cryo-EM structure
Mtb RNAP β subunit = biological target: B1; experiment: cryo-EM structure
[2] = biological target: T1, Mtb PhoP, phosphorylated with acetyl …; experiment: cryo-EM structure

Binder | binding result [1] | binding result (Mtb RNAP σ^A) | binding result (Mtb RNAP α subunit) | binding result (Mtb RNAP β subunit) | binding result [2]
B1 | binds |  |  |  | 
B2 | binds |  |  |  | 
B3 | binds |  |  |  | 
B4 |  | binds | binds | binds | binds
